Measured values: patent publication US20250002596A1, “NEUTRALIZING ANTI-CD95L MONOCLONAL ANTIBODIES” (INSTITUT NATIONAL DE LA SANTÉ ET DE LA RECHERCHE MÉDICALE, priority 2021, published 2025)
Entries after “also recorded” stand apart in the source; their conditions may differ.

Legend:
IgCD95L = IgCD95L (UniProt P48023); test: SPR
CD95L = CD95L (UniProt P48023); test: flow cytometry (1A12 cells)
[1] = target: T1, Ig-CD95L (soluble and cytotoxic human CD95L) (UniProt P48023 103-281); test: SPR
T1 chain: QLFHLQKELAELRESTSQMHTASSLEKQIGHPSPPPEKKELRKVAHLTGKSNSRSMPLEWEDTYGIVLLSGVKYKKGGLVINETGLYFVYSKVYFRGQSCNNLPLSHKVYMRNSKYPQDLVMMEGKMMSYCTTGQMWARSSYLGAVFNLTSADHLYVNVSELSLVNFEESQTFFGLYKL

[2] = target: T2, human CD95L expressed on cells (UniProt P48023 1-281); test: flow cytometry (1A12 cells)
T2 chain: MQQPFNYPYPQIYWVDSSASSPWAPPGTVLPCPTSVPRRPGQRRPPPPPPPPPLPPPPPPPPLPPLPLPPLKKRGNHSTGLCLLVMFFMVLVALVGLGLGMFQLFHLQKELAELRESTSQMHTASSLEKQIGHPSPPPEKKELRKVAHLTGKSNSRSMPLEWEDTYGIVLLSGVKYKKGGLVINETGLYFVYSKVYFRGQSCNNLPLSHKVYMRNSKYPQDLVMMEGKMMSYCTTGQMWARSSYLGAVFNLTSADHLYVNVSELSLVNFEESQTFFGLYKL

[3] = target: T3, human CD95L expressed on cells (human, UniProt P48023 1-281); test: flow cytometry on HEK/293T cells transiently transfected with CD95L, antibody at 1 µg/ml
T3 construct: also called FasL; FASL
T3 sequence: T2 chain
Description: (§1) FIG. 1. JQ3 recognizes human and simian CD95L and is a stronger neutralizing anti-CD95L mAb as compared to the commercial anti-CD95L antibody NOK-1. A. Kon, Koff and Kd of JQ3 (IgG1κ) and NOK-1 (IgG1κ) hybridoma measured by surface plasmon resonance. IgCD95L was immobilized on a sensor chip S CM5 and antibody binding features was evaluated using a Biacore T200. B. The ability of the anti-human CD95L monoclonal antibodies NOK-1 and JQ3 and anti-mouse CD95L monoclonal antibody MFL3 (1 μg/ml) to recognize human, simian or mouse CD95L was determined by flow cytometry using HEK/293T cells transiently transfected with indicated CD95L-encoding pcDNA3.1 vectors. C. The binding efficiency of NOK-1 and JQ3 was compared by flow cytometry against CD95L-expressing 1A12 cell line. Left panel: Histograms report the intensity of CD95L staining (CD95L mean of fluorescence—isotypic mean of fluorescence) according to the antibody concentration (M). Right panels: examples of CD95L staining, in red the JQ3 or NOK-1 staining and in grey the isotypic staining. Table indicates the half maximal effective concentration (EC50) for each antibody. D. The neutralizing ability of NOK1 and JQ3 mAbs was compared by incubating CD95-sensitive Jurkat cell line (5.10⁵ cells) for 24 hours with 100 ng/ml of Ig-CD95L (soluble and cytotoxic human CD95L) in the presence or absence of the indicated concentrations of antibody.

human CD95L = target: T4, human CD95L (Homo sapiens, UniProt P48023); test: Flow cytometry recognition of CD95L on transiently transfected HEK/293T cells; assay type: cell-based; conditions: antibody 1 μg/ml, HEK/293T cells transfected with CD95L-encoding pcDNA3.1 vector
T4 construct: expressed in transfected cells; host or cells: HEK/293T
T4 sequence (P48023 1-281): T2 chain
Description: as §1, with “JQ3 recognizes human and simian CD95L and is a stronger neutralizing anti-CD95L mAb as compared to the commercial anti-CD95L antibody NOK-1.” left out, “(5.10^5” for “(5.10⁵”

simian CD95L = test: as above; assay type: cell-based; conditions: antibody 1 μg/ml, HEK/293T cells transfected with CD95L-encoding pcDNA3.1 vector
Description: as §1, with “JQ3 recognizes human and simian CD95L and is a stronger neutralizing anti-CD95L mAb as compared to the commercial anti-CD95L antibody NOK-1.” left out, “(5.10^5” for “(5.10⁵”

[4] = system: Ig-CD95L (soluble and cytotoxic human CD95L); test: Neutralization of Ig-CD95L-induced cell death in Jurkat T-cells (MTT assay); assay type: cell-based; conditions: 24 hours, 100 ng/ml Ig-CD95L, compared with NOK-1
Description: as §1, with “JQ3 recognizes human and simian CD95L and is a stronger neutralizing anti-CD95L mAb as compared to the commercial anti-CD95L antibody NOK-1.” left out, “D. The neutralizing ability of NOK1 and JQ3 mAbs was compared by incubating CD95-sensitive Jurkat cell line (5.10⁵ cells) for 24 hours with 100 ng/ml of Ig-CD95L (soluble and cytotoxic human CD95L) in the presence or absence of the indicated concentrations of antibody.” left out
Cell viability was assessed using MTT (3-(4,5-dimethylthiazol-2-yl)-2,5-diphenyltetrazolium bromide) assay as previously described (48). […] Then, MTT (15 μl at 5 mg/mL in PBS) was added, and after 4 h of incubation at 37° C., the absorbance was measured at 570 nm wavelength using the Infinite200Pro (Tecan, Männedorf, Switzerland).

[5] = system: CD95-mediated Ca^2+ response in neutrophils; test: Calcium response (Cal-520 imaging) of healthy donor neutrophils stimulated with patient sera; assay type: cell-based, human; conditions: sera from AAV or COVID-19 patients pre-incubated 30 min with antibody 10 μg/mL

NOK1
Kd (IgCD95L): 5.3 nM

NOK-1
EC50 (CD95L): 353000 nM

B1: JQ3 neutralizing anti-CD95L monoclonal antibody (IgG1κ) (antibody, V domains shown)
VH: EIQLQQTGPELVKPGASVKISCKASGFSFTDYIMVWVKQSHGKILEWIGDISPYYGTATYNLKFKGKATLTVVKSSSTAYMQLNSLTSEDSAVYYCARAPNRYEVMDYWGQGTSVTVSS
VL: QIVFTQSPAIMSAFLGEEITLTCSASSSVSYMHWYQQKSGTSPKLLIYNTFNLASGVPSRFSGSGSGTFYSLTISSVEAEDAADYYCHQWSSYPTFGGGTKLEIK
notes: Mouse (Balb/c) hybridoma antibody, IgG1 kappa, purified on protein A; also called JQ3 mAb
Kd [1]: 2.2 nM
EC50 [2]: 5.53 nM
binding result [3]: binds

B2: JQ3: neutralizing anti-CD95L monoclonal antibody (IgG1κ), mouse hybridoma; VL and VH domains given as sequences (antibody, V domains shown)
VH: B1 VH
VL: B1 VL
recognition of human CD95L (human CD95L): recognizes
recognition of simian CD95L (simian CD95L): recognizes
neutralizing ability (inhibition of CD95-mediated apoptotic signaling pathway) [4]: stronger neutralizing anti-CD95L mAb as compared to the commercial anti-CD95L antibody NOK-1; also recorded: inhibited the CD95-mediated apoptotic signaling pathway induced in T-cell line Jurkat more efficiently than NOK-1 mAb
inhibition of neutrophil activation (calcium response) [5]: inhibit neutrophil activation (calcium response); also recorded: blocked the CD95-mediated Ca^2+ response
